# B1: ddHisA (Desulfovibrio desulfuricans ATCC 27774) (protein)
# chain: MIIFPAVDIQNGKAVRLKQGRAHESTVFAESPVDAARAWEEAGARWLHVVDLDGAFDGAAQSRRIVRDICAALAIPVQLGGGIRDMHTAEAYLEAGVSRLIIGTLALEQPTLFADMCRAFPGRVGVSLDAEGGRLKSRGWVEDTGMTVDTALPRLLDDGAAFVIYTDIERDGMQCGVNVAALEHLARLSTVPVIAAGGVATLEDIQKLYPLTLETSLMGAVSGRALYEGTLDLKEANAWIDARKNTPESA
# notes: full-length hisA in pET24a (NdeI/XhoI), His-tag (HisTrap), E. coli T7 Express with pRARE
# B2: pcHisA (Syntrophotalea carbinolica DSM 2380) (protein)
# chain: MIVIPAIDLKEGRCVRLEQGLMEKDTVYNDNPGAQARSWQEQGGELLHIVDLDGAFAGVPRNRDAIRAIAEAVSIPTELGGGIRDLPTIEAYLELGIDRVILGTVAKENPELVREACRLFPGRIVVGIDARDGLVAVRGWADVTEKLATELAKEMEGFGVEAIIYTDIARDGMMGGPNLEATRALAESISVPVIASGGVSCLEDIARLMTIEDSGVTGVITGKALYTGSLDLREAVALTKGKA
# notes: as for B1
# B3: tmHisA (Thermotoga maritima MSB8) (protein)
# chain: MLVVPAIDLFRGKVARMIKGRKENTIFYEKDPVELVEKLIEEGFTLIHVVDLSNAIENSGENLPVLEKLSEFAEHIQIGGGIRSLDYAEKLRKLGYRRQIVSSKVLEDPSFLKSLREIDVEPVFSLDTRGGRVAFKGWLAEEEIDPVSLLKRLKEYGLEEIVHTEIEKDGTLQEHDFSLTKKIAIEAEVKVLAAGGISSENSLKTAQKVHTETNGLLKGVIVGRAFLEGILTVEVMKRYAR
# notes: full-length hisA in pET21a (NdeI/NotI), His-tag (HisTrap), E. coli BL21-CodonPlus-(DE3)-RIPL; heat step 70 °C
# B4: CA-Bact-HisA (synthetic construct) (protein)
# chain: MRIIPAIDLKDGRCVRLVQGDMEKATVYNDDPLEMAKQWVEQGAEWLHVVDLDGAFAGKPVNEDVIKEIAQKVSVKVQLGGGIRDLEDIEAYLDAGVDRVIIGTVAVKNPELVREMVEKYGERIVVGIDARDGMVAVKGWKETTEVKATDLAKRFEDAGVEAIIYTDIARDGMMQGPNIEAIRELAKAVSLPVIASGGVSSLEDIEALLAIEESGVAGVIVGKALYEGRLDLREALALAKKL
# notes: synthetic gene in pET24a, His-tag (HisTrap), E. coli BL21-Gold (DE3)
# Assays:
# Test in all cases: purified protein
# purified protein [1] = substrate: NC(=O)c1ncn([C@@H]2O[C@H](COP(=O)(O)O)[C@@H](O)[C@H]2O)c1N=CN[C@@H]1O[C@H](COP(=O)(O)O)[C@@H](O)[C@H]1O; format: biochemical, Desulfovibrio desulfuricans; conditions: 25 °C, HisA reaction
# purified protein [2] = substrate: O=C(O)c1ccccc1N[C@@H]1O[C@H](COP(=O)(O)O)[C@@H](O)[C@H]1O; format: biochemical, Desulfovibrio desulfuricans; conditions: 25 °C, TrpF reaction, PRA generated in situ from anthranilate and excess PRPP with yeast anthranilate phosphoribosyl transferase
# purified protein [3] = substrate: NC(=O)c1ncn([C@@H]2O[C@H](COP(=O)(O)O)[C@@H](O)[C@H]2O)c1N=CN[C@@H]1O[C@H](COP(=O)(O)O)[C@@H](O)[C@H]1O; format: biochemical, Syntrophotalea carbinolica; conditions: 25 °C, HisA reaction
# purified protein [4] = substrate: O=C(O)c1ccccc1N[C@@H]1O[C@H](COP(=O)(O)O)[C@@H](O)[C@H]1O; format: biochemical, Syntrophotalea carbinolica; conditions: 25 °C, TrpF reaction, PRA generated in situ from anthranilate and excess PRPP with yeast anthranilate phosphoribosyl transferase
# purified protein [5] = substrate: NC(=O)c1ncn([C@@H]2O[C@H](COP(=O)(O)O)[C@@H](O)[C@H]2O)c1N=CN[C@@H]1O[C@H](COP(=O)(O)O)[C@@H](O)[C@H]1O; format: biochemical, Thermotoga maritima; conditions: 25 °C, HisA reaction
# purified protein [6] = substrate: O=C(O)c1ccccc1N[C@@H]1O[C@H](COP(=O)(O)O)[C@@H](O)[C@H]1O; format: biochemical, Thermotoga maritima; conditions: 25 °C, TrpF reaction, PRA generated in situ from anthranilate and excess PRPP with yeast anthranilate phosphoribosyl transferase
# purified protein [7] = substrate: NC(=O)c1ncn([C@@H]2O[C@H](COP(=O)(O)O)[C@@H](O)[C@H]2O)c1N=CN[C@@H]1O[C@H](COP(=O)(O)O)[C@@H](O)[C@H]1O; format: biochemical, synthetic construct; conditions: 25 °C, HisA reaction, enzyme shows hysteresis
# purified protein [8] = substrate: O=C(O)c1ccccc1N[C@@H]1O[C@H](COP(=O)(O)O)[C@@H](O)[C@H]1O; format: biochemical, synthetic construct; conditions: 25 °C, TrpF reaction, PRA generated in situ from anthranilate and excess PRPP with yeast anthranilate phosphoribosyl transferase, enzyme shows hysteresis
protein,measurement,setting,value
B1,Km,purified protein [1],2.8 µM
same,kcat,purified protein [1],1.3 s⁻¹
same,kcat/Km,purified protein [1],460000 M⁻¹ s⁻¹
same,Km,purified protein [2],161 µM
same,kcat,purified protein [2],0.0023 s⁻¹
same,kcat/Km,purified protein [2],14 M⁻¹ s⁻¹
B2,Km,purified protein [3],1.8 µM
same,kcat,purified protein [3],0.4 s⁻¹
same,kcat/Km,purified protein [3],220000 M⁻¹ s⁻¹
same,Km,purified protein [4],303 µM
same,kcat,purified protein [4],0.001 s⁻¹
same,kcat/Km,purified protein [4],3 M⁻¹ s⁻¹
B3,Km,purified protein [5],5.6 µM
same,kcat,purified protein [5],1 s⁻¹
same,kcat/Km,purified protein [5],180000 M⁻¹ s⁻¹
same,Km,purified protein [6],60 µM
B4,Km,purified protein [7],0.5 µM
same,kcat,purified protein [7],0.05 s⁻¹
same,kcat/Km,purified protein [7],100000 M⁻¹ s⁻¹
same,Km,purified protein [8],3.2 µM
same,kcat,purified protein [8],0.00023 s⁻¹
same,kcat/Km,purified protein [8],70 M⁻¹ s⁻¹
